Experimental data reported in US20210253692A1 (GALAPAGOS, published 2021).

Target: the molecule itself
Experiment: dynamic light scattering in phosphate buffered saline; self-interaction of the antibody

B1: MAB#1 (antibody, human IgG1, lambda, V domains shown)
VH: EVQLLESGGGLVQPGGSLRLSCAASGFTVSDYAMHWVRQAPGKGLEWVSYIGGVGEGTQYAESVKGRFTISRDNSKNTLYLQMNSLRAEDTAVYYCARGFAIRYYGFDYWGQGTLVTVSS
VL: SYELTQPPSVSVSPGQTASITCSGDKLGDKYAYWYQQKPGQSPVLVIYQDSKRPSGIPERFSGSNSGNTATLTISGTQAEDEADYYCQVFTFPLVTTVFGGGTKLTVLG
notes: also called IL-17C antibody; anti-IL-17C antibody
With B1 the “kD (diffusion interaction parameter)” value was -23.6 mL/g.
